The results in this text go back to article PMC7784082 (Cell metabolism, 2019).

This test deals with TAZ, mouse, expressed from plasmid (HA-TAZ WT) (mouse, UniProt Q9EPK5 1-395). Kind of test: co-IP.
Sequence of TAZ, mouse, expressed from plasmid (HA-TAZ WT) (Q9EPK5 whole entry): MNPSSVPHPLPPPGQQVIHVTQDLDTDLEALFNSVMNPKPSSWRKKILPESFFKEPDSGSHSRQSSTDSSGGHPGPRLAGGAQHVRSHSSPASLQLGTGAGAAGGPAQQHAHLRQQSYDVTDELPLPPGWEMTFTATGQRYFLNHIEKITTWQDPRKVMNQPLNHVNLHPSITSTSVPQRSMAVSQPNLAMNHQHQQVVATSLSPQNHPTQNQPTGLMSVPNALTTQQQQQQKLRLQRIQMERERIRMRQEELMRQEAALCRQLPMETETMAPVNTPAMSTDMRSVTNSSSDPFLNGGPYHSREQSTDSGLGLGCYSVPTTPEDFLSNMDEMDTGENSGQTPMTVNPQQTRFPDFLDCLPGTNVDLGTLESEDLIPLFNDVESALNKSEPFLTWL

B1: PPARγ S112D (phospho-mimic mutant of mouse PPARgamma 2) (natural protein, UniProt P37238-1 1-505, looked up)
chain: MGETLGDSPVDPEHGAFADALPMSTSQEITMVDTEMPFWPTNFGISSVDLSVMEDHSHSFDIKPFTTVDFSSISAPHYEDIPFTRADPMVADYKYDLKLQEYQSAIKVEPADPPYYSEKTQLYNRPHEEPSNSLMAIECRVCGDKASGFHYGVHACEGCKGFFRRTIRLKLIYDRCDLNCRIHKKSRNKCQYCRFQKCLAVGMSHNAIRFGRMPQAEKEKLLAEISSDIDQLNPESADLRALAKHLYDSYIKSFPLTKAKARAILTGKTTDKSPFVIYDMNSLMMGEDKIKFKHITPLQEQSKEVAIRIFQGCQFRSVEAVQEITEYAKNIPGFINLDLNDQVTLLKYGVHEIIYTMLASLMNKDGVLISEGQGFMTREFLKNLRKPFGDFMEPKFEFAVKFNALELDDSDLAIFIAVIILSGDRPGLLNVKPIEDIQDNLLQALELQLKLNHPESSQLFAKVLQKMTDLRQIVTEHVQLLHVIKKTETDMSLHPLLQEIYKDLY
With B1, the “fold change of association against WT PPARγ” value was about 2 fold.
